The DeepSol protein solubility set

Experiment: soluble on expression in E. coli; label from the status in PepcDB or PDB records

Sequence	soluble on expression in E. coli
MAHHHHHHMNLIHICLFIIVIKCYVNCIKKNNKHIAYDKFYKQGSNTIVGSGNGSGDLLFLNNININKNVERKKNILAHSEIGTVRNIDDINLLNHNKKNEISFTKCKQIATIGPASENFEQLEKLYLNGIDVFRLNFSHGLKSIKKYIINSIRILEKKYDTTIGILGDIQGPKIRIGEFEKNQINENDNNTFVELKEGDLFSFDLMNSLGNQNRVQLNYPELIKNAKAGQIILLDDGNLKMKILENNYDTSNIQNSYIKVQVLTGGKLYSKKGFCIPNMIMPIDVLSEKDIKDILFCINEEVDFLGYSFVQTEYDLIFLRNIINDYYESDFYNNIKRKDRINFDQNNLQMKTFDDENDFYIKEVNDYYNNYYLKNVQKYKQIYDVYKNQDLYINDNIQNHYNKNIVTNIGDDKNIIDEQHIHNNNNNNIDNIMKNYSNLYNINKDHNKIAIISKIEKPSAIKNIENIIKLSDGIMIARGDLGIETNLSNLPILQKKLINLCRIKYNKPVIVATQMMESMRFLPSPTRAEVTDVATALYDGSDCVMLSAETATGQYPILTVSTQNKIIKDVENDYYYYEYTQRKNDKLKMLDHKNNCCHENKDIQQINKYNHEYIQNNKYEQDIQNNISYFDKLIFSIRDISNNINLKSIILFSNEFNKIQKLSNLRTKAPIIVITENKYLARKLQLTWGIYPHLSKKQNLFNHDLFSLINYGCDVSKKEGFVNSPDEYSLVTFSKNINSANLLYLCQPCLTN	not soluble
MGHHHHHHSHMFVSDFRKEFYEVVQSQRVLLFVASDVDALCACKILQALFQCDHVQYTLVPVSGWQELETAFLEHKEQFHYFILINCGANVDLLDILQPDEDTIFFVCDTHRPVNVVNVYNDTQIKLLIKQDDDLEVPAYEDIFRDEEED	soluble
MTYELAIGDRAYSSWSLRGWLLFDAFGLPVRVRRARLYTDELPALLADFAPARTVPAMKTSAGTVVAESLAIAEELASRHPEAGIWPADPEHRAVARALAAEMHAGFGALRSHCPMNLRVSYEGCDPPEAVQADLARLERIWAEARARCSTEGPWLCGSYSAADVFFAPVAARIAGYGLAVSPEAQAYVAAHLAHPSFRRWRAMGAVDGADQEFYARPYPPRPWPGPAPLPARAVADGVAENDACPYSGAPVTDLLEIEGRIFGFCNPFCRDKTVADPEAWPAFTALLRHREGS	not soluble
MALLQISEPGLSAAPHQRRLAAGIDLGTTNSLVATVRSGQAETLPDHEGRHLLPSVVHYQQQGHTVGYAARDNAAQDTANTISSVKRMMGRSLADIQTRYPHLPYRFKASVNGLPMIDTAAGLLNPVRVSADILKALAARASESLSGELDGVVITVPAYFDDAQRQGTKDAARLAGLHVLRLLNEPTAAAIAYGLDSGKEGVIAVYDLGGGTFDISILRLSRGVFEVLATGGDSALGGDDFDHLLADYIREQAGIADRSDNRVQRELLDAAIAAKIALSDADTVRVNVAGWQGEITREQFNDLISALVKRTLLACRRALKDAGVEPQDVLEVVMVGGSTRVPLVRERVGEFFGRTPLTAIDPDKVVAIGAAIQADILVGNKPDSEMLLLDVIPLSLGLETMGGLVEKVIPRNTTIPVARAQDFTTFKDGQTAMSIHVMQGERELVQDCRSLARFALRGIPPLPAGGAHIRVTFQVDADGLLSVTAMEKSTGVEASIQVKPSYGLTDGEIASMIKDSMSFAEQDVKARMLAEQKVEAARVLESLTGALTADAALLSAAERQCIDDAAAHLSAVAQGDDVDAIEQAIKNVDKQTQEFAARRMDQSVRRALKGHSVDEV	not soluble
ATALQCFCHLCTKDNFTCVTDGLCFVSVTETTDKVIHNSMCIAEIDLIPRDRPFVCAPSSKTGSVTTTYCCNQDHCNKIELPTTV	soluble
MSEATTTLDGWYCLHDLRSIDWAAWKTLSSDERGQAVSEFLNVVEKWNEVATAKKGSHAMYTVVGQKADIMLMILRPTMEELNEIETELNKTTLAEYMVPAYSYVSVVELSNYLPADEDPYQNPQILARLYPELPKANHICFYPMDKRRQGDDNWYMLPMEERKKMMYSHSKIGRQYAGKVRQVISGSVGFDDFEWGVTLFADDVLQFKKLIYEMRFDEVSARYGEFGTFFVGNILPDEKVEKFLHI	not soluble
MDKNRVFGQRLRQSIQNYFSSPWLLYTAKAEALLDLRDDEAMLNEMEAVGELPMALEYESLTDVQTQIVTAIQAELAHFRNTAQPINLGAVLQEQLARYPQSRHFDVARIIVDQAVKLGMASQDHQAVYPVWQPIDDFSAAVQAHLIDQYDK	soluble
MNSIVNGLYTFMSTTVVPAVTEQAANLVGGASALAEGATQALTQISQTALEWGSGSEDATASSEVFSWEQQGAAAASSDLQEDKKETTEDVHQEAIGASSPNTSIEWEVIHENPDETGPIRHNQFEMVQNNYEWMKNSK	soluble
MGSDKIHHHHHHMNSLGAVIKEIRKNRKLTQKMLSEDICSQSVLSRIENNEELPNVLVMQQLCDRLGVTVDQIMRYKSGDVHVVTYSFEKMAEYFRHKKYQLLLNYLKENRIEEQLYLDTDWQKYYYYLGSCELFVLNDYEKAIASLRKGLSFTYKADKLNVSDLEIQLISCLGATYGYMGNRVEAERFLSLSIHYFNQLPNERSNAELTKIFFNYADFLFKNYTEKDAEIYVDQGITWARKKNSYYYLSELLNLKYLVLMRKNKHEEAERYLNLAQQMKNVESGNL	not soluble
MIPVFNITSNRGRLLQQISVGDIWGVGRQWANKLISRGIHTAYDLAMTNPHLLKKCFNAVLMRTAMELQGIACGGLEVLEHHHHHH	not soluble
MGSDKIHHHHHHMIVLGHRGYSAKYLENTLEAFMKAIEAGANGVELDVRLSKDGKVVVSHDEDLKRLFGLDVKIRDATVSELKELTDGKITTLKEVFENVSDDKIINIEIKEREAADAVLEISKKRKNLIFSSFDLDLLDEKFKGTKYGYLIDEENYGSIENFVERVEKERPYSLHVPYQAFELEYAVEVLRSFRKKGIVIFVWTLNDPEIYRKIRREIDGVITDEVELFVKLR	not soluble
MNLMLCCTPLQVLIARKIIELHPNEQFFGVMFGGVWDKKRTLYASKLAEVCSDSMNIDTGKDLKGFDFLKLMRQLKNKITHKGFDKVFLANLNSLWLQTYLSHVSFKELYTFDDGSDNIFPHPNLLREPGTFKYKLIKAFIGDKYSVNKLFKKIKKHYTVYPNYKNIVSNIEPISLWDNQIDCEIDGEVSFFIGQPLLNTKEENISLIKKLKDQIPFDYYFPHPAEDYRVDGVNYVESELIFEDYVFKHLSNKIIIYTFFSSVAFNLLSHPNVEIRFIRTSIPRWQFCYDSFPDLGLTIYKEILEHHHHHH	soluble
MSLEYKYDVVIVGLGPAGSSLAYLLKDTGLKVAGLDIADFNRVWGKPCGDAIGKGHFLETGLPLPKGEAMMQVVNAVDIYSPSEEVKIRLSEPEGGFMIDRNKYGLQLLEEAQKSGVDVYLKTHALSPIIENGRLVGVYAKRHGEDGDVNVKFYSKIIVDATGSGGAIKRKLPSSWPVVEPLKPTDSAVAYRKIVELDYDIEEPDVIRIYINADIAPGGYWWLFPKGRRIANIGIGVQRGRGYPHPRHLYEKYLDKRPDTGRVVRLLNEAGALLPTRRPANTIVWDNFVSIGDNAYTVNPVHGGGMGYAMTAAMYAARGIEKAFEKGDYSVETLWDINLGYMRSTGAKQAGLDILRIYLQTLTNEEVEWAMRNGLANVDNLVEASTQGEIKRLNLTLLEKAKVLARLLGRPTKLMELLTVAEYMSKVKKLYYEYPERPDGLPRWVDRVETLYREYKARLGIDWEGHHHHHH	soluble
MANAASGMAVHDDCKLRFLELKAKRTHRFIVYKIEEKQKQVVVEKVGQPIQTYEEFAACLPADECRYAIYDFDFVTAENCQKSKIFFIAWCPDIAKVRSKMIYASSKDRFKRELDGIQVELQATDPTEMDLDVFRSRAN	soluble
GPLGSPLIGEIGPETYSDYMSAGIPLAYIFAETAEERKELSDKLKPIAEAQRGVINFGTIDAKAFGAHAGNLNLKTDKFPAFAIQEVAKNQKFPFDQEKEITFEAIKAFVDDFVAGKIEPSIKSEPIPEKQEG	soluble
MYTNSDFVVIKALEDGVNVIGLTRGADTRFHHSEKLDKGEVLIAQFTEHTSAIKVRGKAYIQTRHGVIESEGKKAAAAAAA	soluble
